One series addresses Fyn (UniProt P06241). Nature of the series: phosphorylation enrichment, bacterial display (enrichment ratio); higher = better substrate or ligand; peptides without Tyr show the background.
For another series, the system named is Fer (mouse). The description is as above.
The target of another series is Fes (UniProt P07332). The series is described as above.
The target of the next series is EPHB1 (UniProt P54762). The description is as above.
A further series concerns the target Hck (UniProt P08631). The series is described as above.
The target of the next series is FGFR3 (UniProt P22607). The series is described as above.
Sequence of FGFR3 (P22607 whole entry, looked up): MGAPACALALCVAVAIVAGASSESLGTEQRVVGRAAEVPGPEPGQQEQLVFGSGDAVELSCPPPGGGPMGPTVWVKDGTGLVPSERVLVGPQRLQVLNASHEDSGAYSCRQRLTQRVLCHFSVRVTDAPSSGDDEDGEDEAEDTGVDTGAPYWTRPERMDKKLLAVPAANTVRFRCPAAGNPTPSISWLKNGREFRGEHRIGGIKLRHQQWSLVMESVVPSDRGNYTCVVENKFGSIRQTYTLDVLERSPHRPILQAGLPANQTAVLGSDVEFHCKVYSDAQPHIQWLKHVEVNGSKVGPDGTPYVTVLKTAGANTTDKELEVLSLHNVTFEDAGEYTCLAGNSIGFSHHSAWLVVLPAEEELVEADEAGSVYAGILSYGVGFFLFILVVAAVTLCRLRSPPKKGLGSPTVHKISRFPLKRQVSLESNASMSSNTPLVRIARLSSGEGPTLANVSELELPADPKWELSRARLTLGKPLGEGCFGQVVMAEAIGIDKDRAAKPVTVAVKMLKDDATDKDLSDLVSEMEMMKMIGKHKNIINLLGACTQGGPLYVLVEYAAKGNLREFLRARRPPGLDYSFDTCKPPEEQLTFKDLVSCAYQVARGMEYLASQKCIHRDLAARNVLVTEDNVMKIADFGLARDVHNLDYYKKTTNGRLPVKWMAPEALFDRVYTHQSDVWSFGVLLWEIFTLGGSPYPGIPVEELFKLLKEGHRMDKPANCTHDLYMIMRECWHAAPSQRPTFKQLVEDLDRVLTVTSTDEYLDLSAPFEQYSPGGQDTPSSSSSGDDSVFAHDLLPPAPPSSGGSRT
For a further series, the system named is c-Abl (mouse). Described as above.
A further series has as its target FGFR1 (UniProt P11362). Described as above.
In a further series the target is Jak2 (UniProt O60674). Described as above.
Sequence of Jak2 (O60674 whole entry, looked up): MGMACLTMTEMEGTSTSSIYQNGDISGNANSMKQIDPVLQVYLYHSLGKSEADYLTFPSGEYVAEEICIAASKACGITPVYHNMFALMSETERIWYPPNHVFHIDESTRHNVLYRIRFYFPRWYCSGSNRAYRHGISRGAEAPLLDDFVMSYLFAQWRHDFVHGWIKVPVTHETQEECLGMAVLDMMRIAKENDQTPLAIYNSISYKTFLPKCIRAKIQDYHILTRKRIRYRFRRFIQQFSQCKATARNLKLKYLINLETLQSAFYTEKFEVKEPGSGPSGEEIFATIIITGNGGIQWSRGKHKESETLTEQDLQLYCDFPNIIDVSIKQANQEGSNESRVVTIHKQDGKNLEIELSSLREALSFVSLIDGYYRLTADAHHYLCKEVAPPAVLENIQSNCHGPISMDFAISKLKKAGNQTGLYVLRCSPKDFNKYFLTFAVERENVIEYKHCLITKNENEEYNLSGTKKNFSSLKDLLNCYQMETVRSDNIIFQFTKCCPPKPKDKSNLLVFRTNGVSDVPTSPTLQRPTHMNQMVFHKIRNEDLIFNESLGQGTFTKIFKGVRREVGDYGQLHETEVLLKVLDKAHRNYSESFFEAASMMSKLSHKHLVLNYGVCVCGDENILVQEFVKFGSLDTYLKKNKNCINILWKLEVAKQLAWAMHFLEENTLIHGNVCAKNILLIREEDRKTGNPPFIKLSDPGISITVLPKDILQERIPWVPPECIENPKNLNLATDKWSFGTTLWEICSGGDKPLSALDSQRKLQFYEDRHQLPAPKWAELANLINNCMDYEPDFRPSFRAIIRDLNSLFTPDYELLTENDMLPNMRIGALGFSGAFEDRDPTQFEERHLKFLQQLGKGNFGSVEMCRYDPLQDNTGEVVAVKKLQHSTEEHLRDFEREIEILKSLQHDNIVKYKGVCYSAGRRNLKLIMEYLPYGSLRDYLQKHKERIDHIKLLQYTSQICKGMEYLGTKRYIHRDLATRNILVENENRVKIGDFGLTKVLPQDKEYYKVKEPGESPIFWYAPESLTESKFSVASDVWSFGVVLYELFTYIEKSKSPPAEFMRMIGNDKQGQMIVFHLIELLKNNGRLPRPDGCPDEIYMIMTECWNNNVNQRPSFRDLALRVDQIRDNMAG
A further series has as its system AncSZ. Described as above.
The next series relates to c-Src. Described as above.
A further series has as its target MERTK (UniProt Q12866). Described as above.
For another series, the target named is EPHB2 (UniProt P29323). The description is as above.
For another series, the target named is c-Src SH2. Nature of the series: SH2 binding enrichment of the phosphorylated peptide, bacterial display (enrichment ratio); higher = better substrate or ligand; peptides without Tyr show the background.
Another series concerns the target Grb2 SH2 (UniProt P62993). Described as above.
A further series deals with SHP2-C SH2. Described as above.
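Wherever SH2 binding enrichment of the phosphorylated peptide, bacterial display is given: peptide library displayed on the E. coli surface as eCPX fusions, selected cells deep-sequenced, score is each peptide's frequency after selection divided by its frequency in the input.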
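Wherever phosphorylation enrichment, bacterial display is given: 11-residue human phosphosite peptides and single-mutation variants displayed on the E. coli surface, counted by deep sequencing, each peptide's frequency after selection divided by its frequency in the unselected input library; frequency after pTyr selection over input frequency; kinase dosed for 20-30% of maximal phosphorylation in three min.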

Sequence of MERTK (Q12866 whole entry, looked up): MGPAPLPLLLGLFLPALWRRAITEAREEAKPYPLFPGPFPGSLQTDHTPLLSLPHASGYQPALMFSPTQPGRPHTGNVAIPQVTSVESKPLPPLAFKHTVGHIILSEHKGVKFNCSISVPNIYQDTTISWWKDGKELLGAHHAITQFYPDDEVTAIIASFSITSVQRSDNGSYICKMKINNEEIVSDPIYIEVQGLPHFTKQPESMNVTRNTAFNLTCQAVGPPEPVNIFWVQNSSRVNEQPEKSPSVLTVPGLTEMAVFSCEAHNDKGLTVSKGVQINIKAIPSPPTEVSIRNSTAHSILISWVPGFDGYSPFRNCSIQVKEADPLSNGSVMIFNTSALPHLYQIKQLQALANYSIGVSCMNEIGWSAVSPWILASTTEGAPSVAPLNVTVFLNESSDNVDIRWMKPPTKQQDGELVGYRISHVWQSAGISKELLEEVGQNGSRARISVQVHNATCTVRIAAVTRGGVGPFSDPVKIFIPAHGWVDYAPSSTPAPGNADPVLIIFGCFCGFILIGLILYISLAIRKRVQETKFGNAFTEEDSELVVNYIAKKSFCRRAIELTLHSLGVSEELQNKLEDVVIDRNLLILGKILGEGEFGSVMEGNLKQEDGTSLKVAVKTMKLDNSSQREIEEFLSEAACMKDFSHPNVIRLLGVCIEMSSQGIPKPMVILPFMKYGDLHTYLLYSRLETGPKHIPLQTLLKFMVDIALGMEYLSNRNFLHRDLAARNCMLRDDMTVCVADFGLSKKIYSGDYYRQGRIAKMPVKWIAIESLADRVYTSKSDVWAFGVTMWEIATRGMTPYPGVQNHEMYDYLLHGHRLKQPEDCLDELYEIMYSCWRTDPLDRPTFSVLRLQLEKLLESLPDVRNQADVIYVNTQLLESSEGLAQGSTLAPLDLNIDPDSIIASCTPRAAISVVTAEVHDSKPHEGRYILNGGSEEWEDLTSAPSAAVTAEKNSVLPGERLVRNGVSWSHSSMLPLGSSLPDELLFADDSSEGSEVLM
Sequence of EPHB1 (P54762 whole entry, looked up): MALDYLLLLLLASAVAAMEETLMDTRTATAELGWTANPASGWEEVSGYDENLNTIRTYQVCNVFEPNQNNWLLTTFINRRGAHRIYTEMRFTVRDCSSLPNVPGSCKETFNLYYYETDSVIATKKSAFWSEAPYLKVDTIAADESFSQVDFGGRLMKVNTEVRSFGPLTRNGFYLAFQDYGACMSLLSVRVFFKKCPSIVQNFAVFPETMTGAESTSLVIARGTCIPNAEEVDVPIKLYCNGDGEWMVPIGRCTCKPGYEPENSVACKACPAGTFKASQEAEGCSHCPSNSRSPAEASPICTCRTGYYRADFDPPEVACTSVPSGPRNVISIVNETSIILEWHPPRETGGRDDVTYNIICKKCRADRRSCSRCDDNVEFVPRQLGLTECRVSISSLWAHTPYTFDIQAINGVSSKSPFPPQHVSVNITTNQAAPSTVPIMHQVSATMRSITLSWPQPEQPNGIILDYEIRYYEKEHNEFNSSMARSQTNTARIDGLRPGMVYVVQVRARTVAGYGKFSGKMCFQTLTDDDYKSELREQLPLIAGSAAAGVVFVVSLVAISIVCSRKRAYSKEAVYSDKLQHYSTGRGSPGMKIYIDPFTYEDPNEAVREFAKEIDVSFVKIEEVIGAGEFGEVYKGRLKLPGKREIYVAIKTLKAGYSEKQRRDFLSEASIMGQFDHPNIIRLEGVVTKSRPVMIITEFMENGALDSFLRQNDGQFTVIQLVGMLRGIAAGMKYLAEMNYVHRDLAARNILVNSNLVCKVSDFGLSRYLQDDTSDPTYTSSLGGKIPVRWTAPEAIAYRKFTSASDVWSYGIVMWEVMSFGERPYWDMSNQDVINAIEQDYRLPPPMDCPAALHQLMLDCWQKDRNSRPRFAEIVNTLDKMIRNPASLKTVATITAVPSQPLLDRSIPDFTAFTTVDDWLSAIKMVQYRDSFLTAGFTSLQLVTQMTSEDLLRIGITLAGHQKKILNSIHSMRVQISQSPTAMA
Sequence of Fes (P07332 whole entry, looked up): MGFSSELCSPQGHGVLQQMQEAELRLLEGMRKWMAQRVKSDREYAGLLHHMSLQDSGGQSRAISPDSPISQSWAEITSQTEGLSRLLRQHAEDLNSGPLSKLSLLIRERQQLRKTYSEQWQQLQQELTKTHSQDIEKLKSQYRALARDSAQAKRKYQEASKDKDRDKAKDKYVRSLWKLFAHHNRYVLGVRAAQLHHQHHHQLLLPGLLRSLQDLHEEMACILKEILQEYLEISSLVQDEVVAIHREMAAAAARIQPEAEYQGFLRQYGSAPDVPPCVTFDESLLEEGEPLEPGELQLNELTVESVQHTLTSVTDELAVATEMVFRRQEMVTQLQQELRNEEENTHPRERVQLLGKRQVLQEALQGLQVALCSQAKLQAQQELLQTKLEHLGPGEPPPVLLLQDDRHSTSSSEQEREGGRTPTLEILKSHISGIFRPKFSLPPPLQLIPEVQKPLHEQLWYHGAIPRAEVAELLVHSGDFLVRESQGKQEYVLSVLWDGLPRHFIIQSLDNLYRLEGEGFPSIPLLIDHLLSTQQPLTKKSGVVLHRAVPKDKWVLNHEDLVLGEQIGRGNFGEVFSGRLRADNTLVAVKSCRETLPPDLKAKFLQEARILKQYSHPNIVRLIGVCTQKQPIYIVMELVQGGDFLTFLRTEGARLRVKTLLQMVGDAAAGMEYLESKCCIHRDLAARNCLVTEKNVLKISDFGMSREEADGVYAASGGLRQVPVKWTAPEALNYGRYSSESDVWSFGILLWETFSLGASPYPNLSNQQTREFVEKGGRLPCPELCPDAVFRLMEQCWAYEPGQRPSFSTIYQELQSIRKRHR
Sequence of Grb2 SH2 (P62993 whole entry, looked up): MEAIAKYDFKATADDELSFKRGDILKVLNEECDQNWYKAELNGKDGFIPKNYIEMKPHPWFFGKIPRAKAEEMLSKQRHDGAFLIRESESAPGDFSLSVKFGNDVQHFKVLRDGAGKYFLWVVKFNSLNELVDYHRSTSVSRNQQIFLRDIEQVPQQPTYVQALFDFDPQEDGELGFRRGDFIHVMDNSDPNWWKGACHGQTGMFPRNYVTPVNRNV

As to DFDNLYFWDQD [ERBB2_Y1221_A1216D_YF], the phosphorylation enrichment with Fyn amounted to 6.47; with Fer (mouse) it was 2.2; with Fes it was 1.71; with EPHB1 it was 1.57; with Hck, 5.15; with FGFR3, 7.69. For the same sequence, the phosphorylation enrichment worked out at 0.801 with c-Abl (mouse); 7.58 with FGFR1; 1.25 with Jak2; 2.2 in the series with AncSZ; 5.27 with c-Src; 4.6 with MERTK. Also, the phosphorylation enrichment in the series with EPHB2 amounted to 1.07. Moreover, the SH2 binding enrichment in the series with c-Src SH2 was determined as 0.333; with Grb2 SH2 it was 0.668; in the series with SHP2-C SH2, 0.854.
As for FFRRHYPLTTL [TNS4_Y644], the phosphorylation enrichment with Fyn is 0.426; in the series on Fer (mouse), 0.455; with Fes, 0.917; with EPHB1 it was 0.408; with Hck, 0.399; in the series with FGFR3 it was 0.467. The phosphorylation enrichment was 0.587 in the series with c-Abl (mouse); 0.426 with FGFR1; 0.876 in the series with Jak2; 0.995 in the series with AncSZ; 0.516 in the series with c-Src; 0.491 with MERTK. Also, the phosphorylation enrichment in the series with EPHB2 was 0.497. The values for the SH2 binding enrichment with c-Src SH2, with Grb2 SH2 and with SHP2-C SH2 were 0.422, 1.15 and 0.566, respectively.
As for DVLPEYKLQAP [KCNH2_Y388], the phosphorylation enrichment stood at 0.53 with Fyn; 0.427 in the series on Fer (mouse); 0.861 with Fes; 0.548 with EPHB1; 0.519 in the series with Hck; 0.728 with FGFR3. Also, the phosphorylation enrichment came out at 0.693 with c-Abl (mouse); 0.48 in the series with FGFR1; 0.659 with Jak2; 0.911 in the series on AncSZ; 0.405 in the series on c-Src; 0.432 with MERTK. The phosphorylation enrichment with EPHB2 came out at 0.557. Moreover, the SH2 binding enrichment in the series with c-Src SH2 is 0.508; with Grb2 SH2 it was 1.02; with SHP2-C SH2, 0.625.
As to LFQAKYQIRYR [CRLF1_Y272], the phosphorylation enrichment stood at 0.477 with Fyn; 0.325 with Fer (mouse); 1.33 in the series with Fes; 0.79 with EPHB1; 0.763 in the series with Hck; 0.789 in the series with FGFR3. Moreover, the phosphorylation enrichment in the series on c-Abl (mouse) turned out to be 0.779; with FGFR1, 0.566; with Jak2, 0.949; in the series on AncSZ, 1.07; in the series with c-Src, 0.531; in the series with MERTK it was 0.465. For the same sequence, the phosphorylation enrichment in the series with EPHB2 was 0.517. Further, the figures for the SH2 binding enrichment in the series with c-Src SH2, in the series with Grb2 SH2 and with SHP2-C SH2 were 1.22, 1.46 and 1.67, respectively.
FADIAYNYHHG [PAH_Y166_R169H]: the phosphorylation enrichment amounted to 0.469 in the series with Fyn; 0.443 with Fer (mouse); 0.803 with Fes; 0.387 in the series with EPHB1; 0.494 with Hck; 0.525 with FGFR3. The phosphorylation enrichment is 0.415 in the series with c-Abl (mouse); 0.433 with FGFR1; 0.567 in the series with Jak2; 0.643 in the series with AncSZ; 0.638 in the series with c-Src; 0.462 with MERTK. Besides, the phosphorylation enrichment with EPHB2 came to 0.385. Further, the results for the SH2 binding enrichment with c-Src SH2, with Grb2 SH2 and in the series with SHP2-C SH2 were 0.477, 0.751 and 0.654, respectively.
As to KRAAIYNPVIF [RHO_Y301_S297R_YF], the phosphorylation enrichment is 1.91 in the series with Fyn; 10.4 in the series on Fer (mouse); 0.841 with Fes; 0.432 in the series with EPHB1; 4.07 with Hck; 0.541 with FGFR3. Further, the phosphorylation enrichment was determined as 0.741 with c-Abl (mouse); 0.492 with FGFR1; 0.738 with Jak2; 0.725 in the series with AncSZ; 2.22 in the series with c-Src; 2.69 in the series with MERTK. In the series with EPHB2, the phosphorylation enrichment came to 0.55. In addition, the SH2 binding enrichment is 0.854 with c-Src SH2, 1.01 with Grb2 SH2 and 1.19 in the series with SHP2-C SH2.
As to SLGSPYGQPPR [PDLIM4_Y137], the phosphorylation enrichment in the series with Fyn turned out to be 0.553; with Fer (mouse), 0.356; with Fes, 0.771; in the series with EPHB1, 0.413; with Hck, 0.365; in the series with FGFR3 it was 0.526. Moreover, the phosphorylation enrichment in the series with c-Abl (mouse) is 0.486; in the series with FGFR1, 0.426; with Jak2 it was 0.484; in the series on AncSZ, 0.747; with c-Src, 0.461; with MERTK, 0.378. Moreover, in the series with EPHB2, the phosphorylation enrichment worked out at 0.448. Further, the SH2 binding enrichment with c-Src SH2 came to 0.501; in the series with Grb2 SH2 it was 1.06; with SHP2-C SH2, 0.563.
As to HNLPIYEGYAL [ACTA1_Y168_V165L], the phosphorylation enrichment was determined as 11.6 in the series with Fyn; 19.3 in the series with Fer (mouse); 1.16 in the series with Fes; 17 with EPHB1; 9.09 with Hck; 0.64 with FGFR3. For the same sequence, the phosphorylation enrichment in the series on c-Abl (mouse) came out at 2.79; with FGFR1, 0.547; with Jak2, 0.566; with AncSZ, 1.24; in the series with c-Src, 6.97; in the series with MERTK, 6.51. Besides, the phosphorylation enrichment with EPHB2 was 22.7. Further, the SH2 binding enrichment is 2.85 with c-Src SH2, 0.835 in the series with Grb2 SH2 and 0.714 with SHP2-C SH2.
